From the supplement of paper PMC10567573

B1: PI4K2A (parent)
chain: FVKDPQGRIIAVFKPKNEEPYGHL
B2: CCDC6 (parent)
chain: TLFKKIQALQKEKETLAVNYEKEE

Variants of: B1
Test: protein stability index of a GFP-peptide fusion (GPS, HEK-293T) (PSI 1-6); higher = more stable
Conditions: c terminus: a fixed tail appended
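Further: lentivirally expressed fusions sorted by FACS into six bins by GFP to DsRed ratio, PSI derived from sequencing read proportions per bin multiplied by bin number.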

Protein stability index, by site and new letter:
Y21: H 2.59; Q 2.53; S 1.72; E 1.44; N 1.5; M 1.54
P20: R 1.7; A 2.94; G 2.05; N 1.94; I 1.76; Y 1.91; T 2.01; E 1.75
G7: N 2.23; Q 2.07; F 2.74; I 3; K 3.39; C 2.03
I10: V 1.88; C 2.23; T 2.09; A 2.15; M 2.51; D 1.97; F 2.79; N 2.35; H 2.33
P15: T 1.27; I 2.13; H 1.58; R 2.84; C 1.66; V 1.92; Q 2.07; E 2.37; N 2.26; A 2.18; D 1.9
V12: E 1.74; A 3.17; L 2.07; R 1.96; S 2.72; M 2; D 1.56
H23: E 1.62; L 2.41; A 1.65; Y 1.78; T 1.81; N 1.99; M 1.87
R8: T 3.95; G 2.47; V 1.72; L 1.81; K 1.61; S 3.87
N17: E 2.33; H 2.38; F 1.57; I 1.63; R 1.3
Q6: D 2.4; N 1.84; K 1.64; E 1.63; S 1.6; A 1.71; P 2.21; R 1.49; T 2.32; V 2.53
K16: G 1.46; C 1.63; E 2.3; N 1.68; F 2.44; D 2.22; V 2.79; A 1.91; P 1.7; H 1.97; Q 2.23
F13: G 1.39; E 2.05; W 2.13; Q 2.13; K 1.58; T 1.94; N 1.99; D 1.43; C 2.48; S 1.38; R 1.93
G22: D 1.74; S 2.65; A 1.66; Q 2.09; P 2.63; E 2.02; H 1.88; C 1.93
F1: C 2.77; A 2.63; E 3.71; G 3.09; H 2.44; V 2.84
K14: E 2.09; M 3.22; R 1.18; I 1.97; N 1.13; G 2.46; W 1.78; H 2.03; T 2.17; A 2.09; V 1.47
D4: F 2.21; G 1; P 1.31; S 1.7; K 2.28; T 1.48
I9: R 1.59; T 2.34; E 2.17; Y 1.9; S 2.61; F 2.01
A11: G 2.72; I 1.37; C 1.27; D 2.94; M 2.01; Y 1.32
E19: M 1.81; K 2.58; I 2.62; D 2.16; W 2.91
K3: G 2.56; L 1.85; I 2.03; R 3.49
E18: V 2.23; G 3.17; C 2.02; T 1.35; R 2.1
V2: K 2.04; W 1.71; E 3.33; C 1.33; F 2.17; P 2.13; L 2.45
P5: H 2.51; G 1.5; T 1.67; A 1.83; R 2.16; Q 2.83; C 1.66; N 2.29
L24: I 1.92; A 2.27; E 1.04; T 2.22; P 2.33; H 1.76; V 2.19; C 2.24; K 2.04; S 2.1; R 1.42

Variants of: B2
Test: as above
Conditions: c terminus: a fixed tail appended

Protein stability index: each site, then its substitutions
K22: S 3.29; C 3.46; E 3.72; A 3.27; F 2.57; D 3.88; R 2.94; N 3.12; M 3.08; Q 3.3; I 2.74; Y 2.64; V 2.94; W 2.48; L 2.89; H 3.15; G 3.39; T 2.68; P 3.5
E24: T 2.82; Y 2.02; I 2.19; F 2.04; L 2.55; S 2.77; W 1.91; C 3.06; M 2.34; P 2.53; A 2.79; D 3.45; K 2.41; V 2.25; N 2.7; R 2.1; H 2.39; Q 2.84; G 2.68
E23: K 2.68; F 1.99; H 2.93; G 2.58; C 2.34; Y 2.76; A 2.68; P 2.25; L 2.19; N 3.14; Q 2.63; V 2.27; W 1.78; D 3.32; S 2.89; T 3.02; M 2.7; R 2.29; I 2.69
A17: S 2.71; K 3.41; I 2.85; L 2.51; W 2.16; C 3.39; T 3.18; E 3.56; Y 2.46; Q 3.04; D 3.74; H 2.95; N 2.65; V 2.89; F 2.49; G 3.1; P 2.84; R 2.76; M 2.75
V18: Y 2.53; D 3.43; L 3.79; R 2.66; I 3.04; G 3.15; T 3.02; W 2.03; N 3.63; K 3.43; H 3.62; S 3.31; F 2.58; A 2.95; M 2.81; E 3.2; Q 3.21; C 2.95; P 3.16
E21: Q 3.1; I 1.97; G 3.01; T 2.84; F 1.62; V 2.52; A 2.26; C 2.53; R 2.36; K 2.58; S 3.06; D 3.2; M 2.11; Y 1.78; L 2.28; N 2.92; W 1.92; H 2.84; P 2.72
L16: Y 3.58; W 1.86
N19: K 2.69; G 3.25; P 3.24; R 2.57; A 3.11; I 2.7; S 2.99; L 2.41; Q 3.08; Y 2.33; W 2.11; M 2.65; D 3.15; T 3.34; H 3.08; C 3.14; E 3.64; V 2.58; F 2.18
Y20: G 3.71; K 3.68; H 3.62; P 3.21; C 3.32; A 3.54; N 3.57; W 3.26; E 4.32; V 3.47; T 3.62; D 4.09; F 3.06; L 3.45; S 3.84; I 2.96; R 3.53; Q 4.34; M 2.45
